Reference: patent EP0758381B1

Assays:
[1] = biological target: Eck receptor chimera (ectodomain of the Eck receptor fused to the cytoplasmic domain of the FGF receptor) on BAF cells; assay: cell-based or functional assay
[2] = biological target: Elk receptor on transfected 3T3 fibroblasts; assay: cell-based or functional assay

potency in the proliferation assay, clustered against unclustered ligand [1]	potency in the phosphorylation assay, clustered against unclustered ligand [2]	Substance
100 fold		soluble Efl-2 (EHK-1L) produced in COS cells (ligand)
100 fold		soluble myc-tagged Efl-1 (B61) (ligand)
	100 fold	soluble myc-tagged Efl-3 (ELK-L) (ligand)
